Results: the supplement of paper PMC12042874
± gives the uncertainty stated by the source.

Assay: amyloid nucleation score (Sup35N fusion, yeast selection) (log enrichment); library NNK2; higher = more nucleation; inactive = no reads after selection
Procedure, shortened: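 On medium lacking adenine and uracil, psi-negative yeast expressing peptides of 20 random codons fused to Sup35N were grown 7 days at 30°C after a 24-hour induction with 100 μM copper sulfate. Illumina sequencing of input and output plasmid inserts gave the reads, and sequences under 100 input reads were excluded. The nucleation score is the DiMSum log enrichment of output over input reads, centred on the mode score of non-aggregating sequences.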

Point of comparison: LWPCSCFVRRCYECFEGDAG, amyloid nucleation score 3.2 ± 0.057. Against it:
- LSRCWVMSQQCKKSAGVFYA — lower, -0.026 ± 0.55
- LSRNYFVSVLFFSTVRMALA — lower, -0.433 ± 0.54
- LSRRMDMRSSTSALHVSIQL — higher, 6.413 ± 0.064
- LSTLLFRIYGLPS — lower, -2.12 ± 0.49
- LSTRLGNVSHFWLWTRSCMG — lower, 1.04 ± 0.34
- LSVAKPSSACRVKLWSPSVG — lower, 0.492 ± 0.56
- LSVSCGVKCLEWADMMAHQV — lower, -0.533 ± 0.54
- LSVSKSSIYLLLMRSRGHG — lower, 0.175 ± 0.55
- LTGWMFISWSLTIPRPPTIE — lower, -0.849 ± 1.1
- LTHWI — lower, -0.284 ± 0.23
- LTRCPYGSCLNWERWVGYMM — lower, 1.93 ± 0.1
- LTRFMYYLFTDLC — lower, -0.813 ± 1.1
- LTSGNSMIVVS — lower, 0.15 ± 0.18
- LTVYVFSDFSRATVGPSRWL — lower, 0.238 ± 0.48
- LTYACSWYQKSQFGSCLNEW — lower, 0.449 ± 0.26
- LVALVLPGRINENKYVCGD — lower, -0.588 ± 0.49
- LVCELYI — lower, -0.171 ± 0.39
- LVCNPYMRDTARSESLGSAW — lower, 0.923 ± 0.66
- LVDLWSRRGCKKLVRYVESL — lower, 0.818 ± 0.53
- LVFNVLNRFKSARSSRCAGS — lower, -1.14 ± 0.61
- LVFVAGRILMMIFFVSGLAI — lower, 2.59 ± 0.09
- LVGDLVVGYGMCRKGVVR — higher, 5.03 ± 0.079
- LVHRCRYGLLTGLFEGQPVM — lower, -1.12 ± 1.1
- LVIRAKYYNPRTWGKFLHPV — lower, -0.381 ± 0.28
- LVIVVT — within error, 3.1 ± 0.091
- LVLLSFGSV — lower, -0.127 ± 1
- LVLTDSAYRFFKRGDSVDKC — lower, 1.62 ± 0.1
- LVLTSLQHGQFVVVVSVVW — lower, 0.543 ± 0.31
- LVMVWFLNLVFCFGDFNSNR — lower, 0.74 ± 0.18
- LVMYGEDDD — lower, -0.025 ± 1.1
- LVNTYYAHVWWLLVGIMMLS — lower, -0.645 ± 1.1
- LVNVM — lower, 1.39 ± 0.095
- LVQCRNVSMNTILSIGGGKS — higher, 6.17 ± 0.075
- LVQFHRLPRTRWGEFVRGDH — higher, 3.84 ± 0.092
- LVRSIHMVPLTWFRSNSGMF — higher, 4.13 ± 0.078
- LVSMNFYCMILGIESLFVLS — higher, 4.04 ± 0.074
- LVSQLPVDFMVTFDILTVEI — lower, -0.184 ± 1.1
- LVSVLGSTFLGSAWDTEGWY — lower, -0.579 ± 0.5
- LVTKSAGLKGGLMRGDRSRK — lower, 0.585 ± 0.37
- LVWGVP — lower, -0.945 ± 0.76
- LVYCSLLNLILWMSAYI — lower, -0.518 ± 0.45
- LVYNI — lower, -0.081 ± 1.1
- LWDEVAGVAVKI — within error, 3.3 ± 0.1
- LWDLRSEYKFYINMDHFMTV — lower, -1.4 ± 0.75
- LWFDLSSTLPQM — lower, 0.396 ± 0.62
- LWIGWSLKPKVDVRLCHWVK — lower, 0.173 ± 1.1
- LWLIKARYFLELRRLESIRQ — lower, 0.208 ± 1.1
- LWQVRIRPQH — lower, 1.37 ± 0.12
- LWVCSCSNALTNGLWGAVSL — higher, 5.151 ± 0.036
- LWVSVLFKMHAYWLGLEPNS — lower, 2 ± 0.15
- LYFRVNDEGVHFTCEGQKKE — lower, 1.46 ± 0.17
- LYHVISSNWHEDNDMT — lower, 0.003 ± 0.23
- LYIHVDWLAWKTHVRQTKVT — lower, -0.455 ± 1.1
- LYLHKDHIDVNFNHMVKGLT — lower, -0.263 ± 1.1
- LYLIRRHESCCLPNIR — lower, 0.039 ± 0.46
- LYQFSFFGYSYL — lower, 2.39 ± 0.069
- LYTKRSKY — lower, -0.161 ± 1.1
- LYTLTENRLRLYMIYAGLRW — lower, -0.362 ± 0.5
- LYVCHKICSSCLKGW — lower, -1.11 ± 0.61
- LYVGYSDMPVWSPASVCISI — lower, 0.001 ± 0.65
- LYVSALTSVRSWGCGNLVLP — higher, 3.37 ± 0.08
- LYWNVAGLGPQYKSLCLGFR — lower, -0.753 ± 0.56
- LYWSFYNYWATHVGFWHKKA — lower, -1.87 ± 0.64
- MAFVDISSANFRKITRDLLP — lower, 0.82 ± 0.19
- MANYYLCFYFVLVMRQMKFT — lower, -1.18 ± 0.62
- MAYSGKVLFHVSDIVVWGKL — higher, 5.9 ± 0.086
- MCCGCVNVFFMHARHVLGWS — higher, 8.977 ± 0.038
- MCCYVSCQ — lower, 2.55 ± 0.12
- MCGFFVIIMRC — lower, -0.652 ± 0.74
- MCRRFNFIIEVVVNASMTIR — lower, -1.31 ± 1
- MCSSPRRNDKLNNGRFYSCS — lower, -1.11 ± 0.54
- MCTAFSDNHHTRTYPAPKSH — lower, 0.196 ± 0.46
- MCVCCYSIRGLVTGWLWLMA — higher, 4 ± 0.061
- MDCRLV — lower, 0.216 ± 0.51
- MDFYCRWVVWFQEGNF — higher, 3.45 ± 0.058
- MDMPVWG — lower, 0.285 ± 1

For LSSFDSF, the amyloid nucleation score was “inactive”.
With LSVDQSSSELSTDLFDFLHF the amyloid nucleation score was “inactive”.
For LTRQYNNRNPMSLRAIGYAF, the amyloid nucleation score was “inactive”.
With LYKRMYECRRYFLMWNYRGF the amyloid nucleation score was “inactive”.
For LYLSFKGRREFFVIYLKFHS, the amyloid nucleation score was “inactive”.
With LYNCVRYSSYLFNVVPCRGG the amyloid nucleation score was “inactive”.
For LYYLFSKFILRDETSSSQKK, the amyloid nucleation score was “inactive”.
In the case of MARTISAGSVLFNLGSRIWH, the amyloid nucleation score is reported as “inactive”.
With MDGDFSINFMDPSTTCLLYE the amyloid nucleation score was “inactive”.
